For one molecule, Fluorescent Reading (average of duplicates) results are on record in US20200405868A1, “GEL-FORMING POLYPEPTIDES” (priority 2018, published 2020).

The star is where a group is joined. Palmitoyl = CCCCCCCCCCCCCCCC(=O)*

Assay [1] addresses FITC-labled GnRH molecule (a peptide) (UniProt P01148). In words: Centricon filter release assay: FITC-GnRH that passed into the lower chamber with carrier at 1 mg/10 ml (control without carrier 72.50); a lower reading means more retention with the carrier.
For assay [2] the target is unchanged. In words: Centricon filter release assay: FITC-GnRH that passed into the lower chamber with carrier at 1 mg/100 ml (control without carrier 72.50).

B1: SEQ ID NO:119, Pal-SSPHSY-NH2, gel-forming peptide (peptide)
peptide: Palmitoyl-SSPHSY-NH2
SMILES: CCCCCCCCCCCCCCCC(=O)N[C@@H](CO)C(=O)N[C@@H](CO)C(=O)N1CCC[C@H]1C(=O)N[C@@H](Cc1c[nH]cn1)C(=O)N[C@@H](CO)C(=O)N[C@@H](Cc1ccc(O)cc1)C(N)=O
For the molecule B1, the Fluorescent Reading (average of duplicates) in assay [1] came to 9; in assay [2], 58.4.
